Experimental data from publication PMC7375243, “Structural Basis of Human Helicase DDX21 in RNA Binding, Unwinding, and Antiviral Signal Activation” (Advanced Science, 2020).

Tests used:
Conditions in all cases: protein: recombinant; tags: N-terminal His-SUMO, removed by ULP1; label: FAM; single strand
DDX21 core 8A = biological target: T1, DDX21 core 8A (human, UniProt Q9NR30 188-563, R255A;R270A;T315A;R318A;D321A;Q352A;R476A;T494A); assay: UV crosslinking; comparable to WT; MST: 50 mM Tris pH 7.5, 50 mM KCl, 2 mM MgCl2, 1 mM TCEP, 0.01% NP-40, 0.05 mg/mL BSA, 2 mM AMPPNP, 50 nM FAM-RNA; temperature not given; crosslinking buffer not in material
T1 sequence: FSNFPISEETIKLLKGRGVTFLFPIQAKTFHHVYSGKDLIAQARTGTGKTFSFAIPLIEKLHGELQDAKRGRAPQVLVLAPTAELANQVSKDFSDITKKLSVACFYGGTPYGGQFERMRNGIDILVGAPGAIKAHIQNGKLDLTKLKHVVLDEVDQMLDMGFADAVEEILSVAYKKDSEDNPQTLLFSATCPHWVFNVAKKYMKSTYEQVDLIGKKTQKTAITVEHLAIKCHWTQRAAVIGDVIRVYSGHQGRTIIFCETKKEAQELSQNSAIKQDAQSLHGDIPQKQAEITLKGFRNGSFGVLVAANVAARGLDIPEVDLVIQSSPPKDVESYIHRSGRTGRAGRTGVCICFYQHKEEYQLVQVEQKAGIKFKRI

DDX21 core 7A = biological target: T2, DDX21 core 7A (human, UniProt Q9NR30 188-563, R270A;T315A;R318A;D321A;Q352A;R476A;T494A); assay: as above
T2 sequence: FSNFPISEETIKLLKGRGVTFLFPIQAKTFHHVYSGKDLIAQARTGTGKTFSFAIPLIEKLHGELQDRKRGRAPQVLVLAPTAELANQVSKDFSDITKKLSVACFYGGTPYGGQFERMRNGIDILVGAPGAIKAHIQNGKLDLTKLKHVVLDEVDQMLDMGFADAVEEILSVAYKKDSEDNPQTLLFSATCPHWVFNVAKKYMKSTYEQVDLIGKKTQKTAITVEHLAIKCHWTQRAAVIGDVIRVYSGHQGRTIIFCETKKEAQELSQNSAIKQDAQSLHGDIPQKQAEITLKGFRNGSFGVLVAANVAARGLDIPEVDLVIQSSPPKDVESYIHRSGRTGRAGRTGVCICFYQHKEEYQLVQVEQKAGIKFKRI

DDX21 core T494A = biological target: T3, DDX21 core T494A (human, UniProt Q9NR30 188-563, T494A); assay: UV crosslinking; negligibly affected; MST: 50 mM Tris pH 7.5, 50 mM KCl, 2 mM MgCl2, 1 mM TCEP, 0.01% NP-40, 0.05 mg/mL BSA, 2 mM AMPPNP, 50 nM FAM-RNA; temperature not given; crosslinking buffer not in material
T3 sequence: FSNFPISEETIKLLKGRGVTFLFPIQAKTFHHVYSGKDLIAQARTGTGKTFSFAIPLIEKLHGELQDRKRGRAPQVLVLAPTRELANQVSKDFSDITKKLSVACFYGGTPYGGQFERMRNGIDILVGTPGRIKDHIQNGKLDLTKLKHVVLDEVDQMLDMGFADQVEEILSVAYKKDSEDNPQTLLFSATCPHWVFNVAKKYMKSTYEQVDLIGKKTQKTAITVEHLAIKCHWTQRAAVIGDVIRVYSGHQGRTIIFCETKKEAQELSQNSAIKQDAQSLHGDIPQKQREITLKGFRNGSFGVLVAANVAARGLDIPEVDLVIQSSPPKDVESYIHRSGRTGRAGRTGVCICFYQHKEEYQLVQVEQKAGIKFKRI

DDX21 core T315A = biological target: T4, DDX21 core T315A (human, UniProt Q9NR30 188-563, T315A); assay: as above
T4 sequence: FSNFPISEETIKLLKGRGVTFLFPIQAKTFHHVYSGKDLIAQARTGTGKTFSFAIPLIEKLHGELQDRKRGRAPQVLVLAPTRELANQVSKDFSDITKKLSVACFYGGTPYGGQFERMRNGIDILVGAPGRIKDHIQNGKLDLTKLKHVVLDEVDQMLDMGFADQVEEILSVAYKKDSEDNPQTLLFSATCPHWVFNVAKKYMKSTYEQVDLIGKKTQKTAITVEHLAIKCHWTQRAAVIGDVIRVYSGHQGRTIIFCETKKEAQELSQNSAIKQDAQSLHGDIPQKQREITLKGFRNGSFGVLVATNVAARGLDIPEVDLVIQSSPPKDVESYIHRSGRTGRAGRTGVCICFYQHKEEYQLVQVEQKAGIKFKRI

DDX21 core S375L/A376E = biological target: T5, DDX21 core S375L/A376E (human, UniProt Q9NR30 188-563, S375L;A376E); assay: UV crosslinking; about half of activity; MST: 50 mM Tris pH 7.5, 50 mM KCl, 2 mM MgCl2, 1 mM TCEP, 0.01% NP-40, 0.05 mg/mL BSA, 2 mM AMPPNP, 50 nM FAM-RNA; temperature not given; crosslinking buffer not in material
T5 sequence: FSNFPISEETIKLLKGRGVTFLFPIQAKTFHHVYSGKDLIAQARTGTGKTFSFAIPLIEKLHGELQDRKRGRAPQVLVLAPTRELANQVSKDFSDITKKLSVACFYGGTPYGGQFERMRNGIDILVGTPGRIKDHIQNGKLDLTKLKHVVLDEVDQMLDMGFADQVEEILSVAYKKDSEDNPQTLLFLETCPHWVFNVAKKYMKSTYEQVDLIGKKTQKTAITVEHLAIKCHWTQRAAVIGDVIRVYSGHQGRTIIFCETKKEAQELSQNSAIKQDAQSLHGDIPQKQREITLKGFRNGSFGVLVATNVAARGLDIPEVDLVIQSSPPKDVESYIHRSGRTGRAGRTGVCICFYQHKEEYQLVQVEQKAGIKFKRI

UUUUUUUUUUUUUUU (ssRNA) [FAM-U15]
binding result (DDX21 core 8A): binds | binding result (DDX21 core 7A): binds | binding result (DDX21 core T494A): binds | binding result (DDX21 core T315A): binds | binding signal (DDX21 core S375L/A376E): ~50 % of WT
